Here are results for nine variants from publication PMC6778195.

First the molecules themselves.
B1: unnamed (parent)
chain 1: PCVVGGQADTIYPAIANQMAHQMHEDAQTEASKRGLAKLRADAKQGIYKKNRKPQELSNICNITLQHSNDSRNGNNGGACTGKDGNNERFKIGTEWKIGEKVETTDTDAYIPPRRQHMCTSNLENLNVSWVTEDGKAIHSLLGDVQLAAKMDADEIIKRYKKHNTLTDPIQQKDQESICRAVRYSFADLGDIIRGRDLWEHGDQTKLQGHLQIIFGKIKEEIKKKHPGINGNDKYKGDEKNNPPYKQLREDWWEANRHQVWRAMQCELKNLKKSNGDCHYNSRGTPLDDYIPQRLRWMVEWAEWFCKMQSQEYDKLMKQCSQCMSKGGDCRKGDVNCTSCEQACEEYKKKIKKWEKQWNKIKDKYEELYLQAKIAFAGTSFGGGDRDYQQMVHFFKELQKVTGDTTLGDTTSPYSTAAGYIHQEGHVDECTEQTQFCKNRNGNTASGKEDDNYTFKDPPPKYANACKCD
chain 2: QTSVSPSKVILPRGGSVLVTCSTSCDQPKLLGIETPLPKKELLLPGNNRKVYELSNVQEDSQPMCYSNCPDGQSTAKTFLTVYWTPERVELAPLPSWQPVGKNLTLRCQVEGGAPRANLTVVLLRGEKELKREPAVGEPAEVTTTVLVRRDHHGANFSCRTELDLRPQGLELFENTSAPYQLQTFVLPATPPQLVSPRVLEVDTQGTVVCSLDGLFPVSEAQVHLALGDQRLNPTVTYGNDSFSAKASVSVTAEDEGTQRLTCAVILGNQSQETLQTVTIYSFPAPNVILTKPEVSEGTEVTVKCEAHPRAKVTLNGVPAQPLGPRAQLLLKATPEDNGRSFSCSATLEVAGQLIHKNQTRELRVLYGPRLDERDCPGNWTWPENSQQTPMCQAWGNPLPELKCLKDGTFPLPIGESVTVTRDLEGTYLCRARSTQGEVTRKVTVNVLSPRYE

In this experiment the parent is B1. The experiment is described as follows: SPR. To be noted: with partner chain of the complex shown; top curve of the dilution series (250 nM), read at end of injection (~250 s); parent: 260; read off a plot.
Consider chain 1 PCVVGGQADTIYPAIANQMAHQMHEDAQTEASKRGLAKLRADAKQGIYKKNRKPQELSNICNITLQHSNDSRNGNNGGACTGKDGNNERFKIGTEWKIGEKVETTDTDAYIPPRRQHMCTSNLENLNVSWVTEDGKAIHSLLGDVQLAAKMDADEIIKRYKKHNTLTDPIQQKDQESICRAVRYSFADLGDIIRGRDLWEHGDQTKLQGHLQIIFGKIKEEIKKKHPGINGNDKYKGDEKNNPPYKQLREDWWEANRHQVWRAMQCELKNLKKSNGDCHYNSRGTPLDDYIPQRLRWMVEWAEWFCKMQSQEYDKLMKQCSQCMSKGGDCRKGDVNCTSCEQACEEYKKKIKKWEKQWNKIKDKYEELYLQAKIAFAGTSFAAADRDYQQMVHFFKELQKVTGDTTLGDTTSPYSTAAGYIHQEGHVDECTEQTQFCKNRNGNTASGKEDDNYTFKDPPPKYANACKCD [chain 1 G382A G383A G384A], for which the response stood at 260 RU.
For chain 1 PCVVGGQADTIYPAIANQMAHQMHEDAQTEASKRGLAKLRADAKQGIYKKNRKPQELSNICNITLQHSNDSRNGNNGGACTGKDGNNERFKIGTEWKIGEKVETTDTDAYIPPRRQHMCTSNLENLNVSWVTEDGKAIHSLLGDVQLAAKMDADEIIKRYKKHNTLTDPIQQKDQESICRAVRYSFADLGDIIRGRDLWEHGDQTKLQGHLQIIFGKIKEEIKKKHPGINGNDKYKGDEKNNPPYKQLREDWWEANRHQVWRAMQCELKNLKKSNGDCHYNSRGTPLDDYIPQRLRWMVEWAEWFCKMQSQEYDKLMKQCSQCMSKGGDCRKGDVNCTSCEQACEEYKKKIKKWEKQWNKIKDKYEELYLQAKIAFAGTSFGGGDRDYQQMVHFFKELQKVTGDTTDGDTTSPYSTAAGYIHQEGHVDECTEQTQFCKNRNGNTASGKEDDNYTFKDPPPKYANACKCD [chain 1 L407D] the value was 220 RU; for chain 1 PCVVGGQADTIYPAIANQMAHQMHEDAQTEASKRGLAKLRADAKQGIYKKNRKPQELSNICNITLQHSNDSRNGNNGGACTGKDGNNERFKIGTEWKIGEKVETTDTDAYIPPRRQHMCTSNLENLNVSWVTEDGKAIHSLLGDVQLAAKMDADEIIKRYKKHNTLTDPIQQKDQESICRAVRYSFADLGDIIRGRDLWEHGDQTKLQGHLQIIFGKIKEEIKKKHPGINGNDKYKGDEKNNPPYKQLREDWWEANRHQVWRAMQCELKNLKKSNGDCHYNSRGTPLDDYIPQRLRWMVEWAEWFCKMQSQEYDKLMKQCSQCMSKGGDCRKGDVNCTSCEQACEEYKKKIKKWEKQWNKIKDKYAELYLQAKIAFAGTSFGGGDRDYQQMVHFFKELQKVTGDTTLGDTTSPYSTAAGYIHQEGHVDECTEQTQFCKNRNGNTASGKEDDNYTFKDPPPKYANACKCD [chain 1 E366A], 190 RU.
Then chain 1 PCVVGGQADTIYPAIANQMAHQMHEDAQTEASKRGLAKLRADAKQGIYKKNRKPQELSNICNITLQHSNDSRNGNNGGACTGKDGNNERFKIGTEWKIGEKVETTDTDAYIPPRRQHMCTSNLENLNVSWVTEDGKAIHSLLGDVQLAAKMDADEIIKRYKKHNTLTDPIQQKDQESICRAVRYSFADLGDIIRGRDLWEHGDQTKLQGHLQIIFGKIKEEIKKKHPGINGNDKYKGDEKNNPPYKQLREDWWEANRHQVWRAMQCELKNLKKSNGDCHYNSRGTPLDDYIPQRLRWMVEWAEWFCKMQSQEYDKLMKQCSQCMSKGGDCRKGDVNCTSCEQACEEYKKKIKKWEKQWNKIKDKYEELYDQAKIAFAGTSFGGGDRDYQQMVHFFKELQKVTGDTTLGDTTSPYSTAAGYIHQEGHVDECTEQTQFCKNRNGNTASGKEDDNYTFKDPPPKYANACKCD [chain 1 L370D], with 70 RU; and chain 1 PCVVGGQADTIYPAIANQMAHQMHEDAQTEASKRGLAKLRADAKQGIYKKNRKPQELSNICNITLQHSNDSRNGNNGGACTGKDGNNERFKIGTEWKIGEKVETTDTDAYIPPRRQHMCTSNLENLNVSWVTEDGKAIHSLLGDVQLAAKMDADEIIKRYKKHNTLTDPIQQKDQESICRAVRYSFADLGDIIRGRDLWEHGDQTKLQGHLQIIFGKIKEEIKKKHPGINGNDKYKGDEKNAPPYKQLREDWWEANRHQVWRAMQCELKNLKKSNGDCHYNSRGTPLDDYIPQRLRWMVEWAEWFCKMQSQEYDKLMKQCSQCMSKGGDCRKGDVNCTSCEQACEEYKKKIKKWEKQWNKIKDKYEELYLQAKIAFAGTSFGGGDRDYQQMVHFFKELQKVTGDTTLGDTTSPYSTAAGYIHQEGHVDECTEQTQFCKNRNGNTASGKEDDNYTFKDPPPKYANACKCD [chain 1 N242A], with 270 RU; and chain 1 PCVVGGQADTIYPAIANQMAHQMHEDAQTEASKRGLAKLRADAKQGIYKKNRKPQELSNICNITLQHSNDSRNGNNGGACTGKDGNNERFKIGTEWKIGEKVETTDTDAYIPPRRQHMCTSNLENLNVSWVTEDGKAIHSLLGDVQLAAKMDADEIIKRYKKHNTLTDPIQQKDQESICRAVRYSFADLGDIIRGRDLWEHGDQTKLQGHLQIIFGKIKEEIKKKHPGINGNDKYKGDEKNNPPYKQLREDWWEANRHQVWRAMQCELKNLKKSNGDCHYNSRGTPLDDYIPQRLRWMVEWAEWFCKMQSQEYDKLMKQCSQCMSKGGDCRKGDVNCTSCEQACEEYKKKIKKWEKQWNKIKDKYEELYLQAKIAFAGTSFAAGDRDYQQMVHFFKELQKVTGDTTLGDTTSPYSTAAGYIHQEGHVDECTEQTQFCKNRNGNTASGKEDDNYTFKDPPPKYANACKCD [chain 1 G382A G383A], with 280 RU.
On to chain 1 PCVVGGQADTIYPAIANQMAHQMHEDAQTEASKRGLAKLRADAKQGIYKKNRKPQELSNICNITLQHSNDSRNGNNGGACTGKDGNNERFKIGTEWKIGEKVETTDTDAYIPPRRQHMCTSNLENLNVSWVTEDGKAIHSLLGDVQLAAKMDADEIIKRYKKHNTLTDPIQQKDQESICRAVRYSFADLGDIIRGRDLWEHGDQTKLQGHLQIIFGKIKEEIKKKHPGINGNDKYKGDEKNNPPYKQLREDWWEANRHQVWRAMQCELKNLKKSNGDCHYNSRGTPLDDYIPQRLRWMVEWAEWFCKMQSQEYDKLMKQCSQCMSKGGDCRKGDVNCTSCEQACEEYKKKIKKWEKQWNKIKDKYEELYLQAKIAFAGTSFGGGDRDYAQMVHFFKELQKVTGDTTLGDTTSPYSTAAGYIHQEGHVDECTEQTQFCKNRNGNTASGKEDDNYTFKDPPPKYANACKCD [chain 1 Q389A], for which the response worked out at 280 RU.
chain 1 PCVVGGQADTIYPAIANQMAHQMHEDAQTEASKRGLAKLRADAKQGIYKKNRKPQELSNICNITLQHSNDSRNGNNGGACTGKDGNNERFKIGTEWKIGEKVETTDTDAYIPPRRQHMCTSNLENLNVSWVTEDGKAIHSLLGDVQLAAKMDADEIIKRYKKHNTLTDPIQQKDQESICRAVRYSFADLGDIIRGRDLWEHGDQTKLQGHLQIIFGKIKEEIKKKHPGINGNDKYKGDEKANPPYKQLREDWWEANRHQVWRAMQCELKNLKKSNGDCHYNSRGTPLDDYIPQRLRWMVEWAEWFCKMQSQEYDKLMKQCSQCMSKGGDCRKGDVNCTSCEQACEEYKKKIKKWEKQWNKIKDKYEELYLQAKIAFAGTSFGGGDRDYQQMVHFFKELQKVTGDTTLGDTTSPYSTAAGYIHQEGHVDECTEQTQFCKNRNGNTASGKEDDNYTFKDPPPKYANACKCD [chain 1 N241A]: the response amounted to 280 RU.
As for chain 1 PCVVGGQADTIYPAIANQMAHQMHEDAQTEASKRGLAKLRADAKQGIYKKNRKPQELSNICNITLQHSNDSRNGNNGGACTGKDGNNERFKIGTEWKIGEKVETTDTDAYIPPRRQHMCTSNLENLNVSWVTEDGKAIHSLLGDVQLAAKMDADEIIKRYKKHNTLTDPIQQKDQESICRAVRYSFADLGDIIRGRDLWEHGDQTKLQGHLQIIFGKIKEEIKKKHPGINGNDKYKGDEKNNPPYKQLREDWWEANRHQVWRAMQCELKNLKKSNGDCHYNSRGTPLDDYIPQRLRWMVEWAEWFCKMQSQEYDKLMKQCSQCMSKGGDCRKGDVNCTSCEQACEEYKKKIKKWEKQWNKIKDKYEELYLQAKIAFAGTSFGAGDRDYQQMVHFFKELQKVTGDTTLGDTTSPYSTAAGYIHQEGHVDECTEQTQFCKNRNGNTASGKEDDNYTFKDPPPKYANACKCD [chain 1 G383A], the response came out at 270 RU.
